Results on one sequence are retold here after article PMC7102498.

For the series, the target named is T1, QseB (Escherichia coli ECDCM2 (clinical bovine mastitis isolate)) (UniProt P52076).
T1 sequence: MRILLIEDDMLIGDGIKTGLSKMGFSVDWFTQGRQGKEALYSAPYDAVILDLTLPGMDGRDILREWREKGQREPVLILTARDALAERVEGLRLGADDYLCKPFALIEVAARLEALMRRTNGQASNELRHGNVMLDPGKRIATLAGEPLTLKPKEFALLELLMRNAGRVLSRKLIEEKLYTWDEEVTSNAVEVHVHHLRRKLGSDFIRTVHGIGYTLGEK
As to the kind of experiment: EMSA. A general note: A gel shift assay detects complexes by their altered migration in electrophoresis.

Regarding “ATGTTCGTGAATTTACAGGCGTTAGATTTACATACATTTGTGAATGTATGTACCATAGCACGACGATAATATAAACGCAGCAATGGGTTTATTAACTTTTGACCATTGACCAATTTGAAATCGGACACTCGAGGTTTACAT (double strand) [p-acrA promoter]”, the binding entry is given as “no binding”.
